The text below walks through data of the DeepSol protein solubility set.

This data set is described as follows: soluble on expression in E. coli; label from the status in PepcDB or PDB records.
“MGSDKIHHHHHHMEDNDWKLLKIIEISMKNHEWVPIQDLRRKTGFHEKEIVFRLGRLNKFKFTNKSNYGYRLSHWGYDALAMNAFIKKELIAGIGGKVGVGKEGDVYHVLLTNHREAVLKFHQLGRTCFSMGKRYREYLANKRHISWLYASRLTAAREFEVLNMLFPVVKVPEPIEQNRHAIIMGKLHGEELKRVNLLEINVDPEEFFWKLMVEVKKTYKLGIIHGDLSEFNILIDSEGDFVIIDWPQAIEVGKKGKLDKLPFEEVEYDEEFYLKRDIENVVRYFKKYGIDKDIDKLYNYVIGDITSENI”: the “soluble on expression in E. coli” value is listed as “not soluble”. For “MGSDKIHHHHHHMTFMPEKRNADLLFRGFSKTRLMVITLIAVNGPMTVTQLSKVIKTTRSNLYQAIKEMVSDGILVQTRTVSEKNYVEKFYDINTDLFDAIKYGDIRKAIEEMDEDKLRNILYSFLRSASAILSIMAEQVNLSNKDDLDKYVDYVRKNLLIISFSTHSTKDMSKFSSMLSNFFTEIDDDNDEKKDEHLLYIVGFPILNQMGFISKSRHEKLTGDGKE”, the “soluble on expression in E. coli” value was “not soluble”. The entry for “MGSDKIHHHHHHVDKLLYVAMSGAKQNMNSLAVRANNLANANTDGFKSDLEQARSMQAFGEGLPTRVFSMTENPSANFAAGPIKTTGRDLDIAVKGDGWIAVQAVDGGEAYTRSGSLSFDTSGLLRNDRGNPVMGDAGPIVLPLPIEKVEIAQDGTISVRPLGSTAEVIEEVGRIKLVNPGNQNLMRGEDGLFRQLSGVNAPADPNVAVESGAIEGSNVNAVDEMVSLIDLQRQFEMQVKMMKTAEEMDQASSSLMRIS” is “not soluble”; for “SPAKTPIYLKSNYSKKGKKCRLRDILSPDMISPPLGDFRHTIHIGKGGECDAFGDMSFLQGNFELLPGKGGRVRPQYGLHGEFTRANSASDASYVETPSPVLKNAISLPTIGGSQALTLPMISTTVFPMTHDNMSEPSTPPAGSEDLEILQMETLLQSISIFRSDPSPVPEEDEPMIDRMEMNEKSCMKKMHSSEKELETFLSVFVNGNGDANGNFNNGNNGDSVFQYEQDMFSIKGDWADRDSGVEEGRLCDSDFEISKSKSQSQESLPQITGSLFSLELDLGPSILDDVLNIMNKPVS” it is “soluble”. The entry for “MERYVWARFFWQQARDKRGVPRRHVCDTARNNNRRPETGTAFTALCSTTVTPHPDDDDTVKGTCFAPACQVCTILLARAMNWNDGELGQLVQTFHWTHADIALLATALDITRSEARRLLTAWTDAAK” is “not soluble”; for “MILLQLNHISKSFDGEDIFTDVDFEVKTGERIGIVGRNGAGKSTLMKIIAGVENYDSGNVSKIKNLKLGYLTQQMTLNSNATVFEEMSKPFEHIKRMESLIKEETDWLSKHANDYDSDTYKTHMSRYESLSNQFEQLEGYQYESKIKTVLYGLNFSEEDFNKPINDFSGGQKTRLSLAQMLLNEPDLLLLDEPTNHLDLETTKWLEDYLRYFKGAIVIISHDRYFLDKIVTQIYDVALGDVKRYVGNYEEFIQQRDLYYQKRMQEYESQQAEIKRLETFVEKNITRASTSGMAKSRRKILEKMERIDKPMLDAKSANIQFGFDRNTGNDVMHVKNLEIGYQTAITKPMSIEVSKGDHIAIIGPNGIGKSTLIKTIANQQKALNGDITFGANLQIGYYDQKQAEFKSSKTILDYVWDQYPLMNEKDIRAVLGRFLFVQDDVKKIINDLSGGEKARLLLALLMLQRDNVLILDEPTNHLDIDSKEMLEQALQHFEGTILFVSHDRYFINQLANKVFDLTIDGGKMYLGDYQYYIEKVEEAEALKAHQEEQSVNVQAHKKSMEQSSYHNQKEQRREQRKLERQISECENEIETLETTILQIDEQLTQPEVYNNPQKANELAIQKQDSEQKLEHAMSKWEELQQKL” it is “not soluble”; for “MVKPKYSRVLIKLSGEALAGEKGVGIDIPTVQTIAQEIKEVHDSGIEIALVIGGGNLWRGEPASKAGMDRVQADYTGMLGTVMNALVMADALQHAGVDTRVQTAIAMQQVAEPYIRGRALRHLQKGRIVIFAAGVGSPYFSTDTTSALRAAEIEADAILMAKNGVDGVYNDDPRKNADAIKFNELTHMEVLKRGLKIMDSTASSLSMDNDIDLVVFNLNESGNIKRVIFGEQIGTTVTSRISDSEMAGDPLEHHHHHH” it is “soluble”.

Turning to “GMTFEPYPFERLRALLKEITPKKRGLDLGIGEPQFETPKFIQDALKNHTHSLNIYPKSAFEESLRAAQRGFFKRRFKIELKENELISTLGSREVLFNFPSFVLFDYQNPTIAYPNPFYQIYEGAAKFIKAKSLLMPLTKENDFTPSLNEKELQEVDLVILNSPNNPTGRTLSLEELISWVKLALKHDFILINDECYSEIYENTPPPSLLEACMLAGNEAFKNVLVIHSLSKRSSAPGLRSGFIAGDSRLLEKYKAFRAYLGYTSANAIQKASEAAWLDDRHAEFFRNIYANNLKLARKIFKNTLIYPYSFYVYLPVQNGENFAKTLYQNEGIITLPALYLGRNRIGADYVRLALVYDTPLLEKPLEIIETYRENHA”, the “soluble on expression in E. coli” value was “soluble”. For “MRAVRLVEIGKPLSLQEIGVPKPKGPQVLIKVEAAGVCHSDVHMRQGRFGNLRIVEDLGVKLPVTLGHEIAGKIEEVGDEVVGYSKGDLVAVNPLQGEGNCYYCRIGEEHLCDSPRWLGINFDGAYAEYVIVPHYKYMYKLRRLNAVEAAPLTCSGITTYRAVRKASLDPTKTLLVVGAGGGLGTMAVQIAKAVSGATIIGVDVREEAVEAAKRAGADYVINASMQDPLAEIRRITESKGVDAVIDLNYSEKTLSVYPKALAKQGKYVMVGLFGADLHYHAPLITLSEIQFVGSLVGNQSDFLGIMRLAEAGKVKPMITKTMKLEEANEAIDNLENFKAIGRQVLIP”, the “soluble on expression in E. coli” value is reported as “soluble”. To “MTQTASLFLQDSYREECLARITDVVEDGLLLDQTVFYPQGGGQAGDSGWLTLADGTRLRIADTRKGTEAGAGRDAILHIPAEGQATVLRAMKPGEVVLAQIDWVRRYRHMRLHTAAHMLCAVLPYPVNGCSITDEHARLDFVTSEPLSREAIDSALAAMVEAAHPVSIDTMSDDALRARPDLVRTMSVQPPMGAGQVRLVSIKDTDLQPCGGTHVANTEEVGVVRVSKMEKKSARTRRVVLVLG” belongs “not soluble”; to “MSLARANIDTDAILPKQFMKSIERTGFGVHLFDGFRYLDAGSLGMDCSRRPENPDFILNWPRYREASILLAGANFGCGSSREHAPWAIEQYGFRVLIASSFADIFRDNCFKNGLLPIVLASETMDRLFDEVSHQVGFELEVDLPRQTISCPAGWCIEFEMDSIRKAHLLEGIDEIGSTLSLSKKIGDFERARRQSHPWFFGAEGHHHHHH”, “not soluble”; to “SLIKNEHVKKCDTWPSGGEMVVKDLTVKYVDDGNAILENICFSISPGQRVGLLGRTGSGKSTLLSAFLRMLNIKGEIQIDGVSWNSMTLEEWRKAFGVITQKVFIFSGTFRQNLDPNGKWRDEEIWKVADQVGLKSVIEQFPGQLNFTLVDGGYVLSHGHKQLMCLARSVLSKAKIILLDEPSANLDPITYQVIRRVLRQAFAGCTVVLCEARIEAMLDCDRFLVIEQGNVWQYESLQALLSEKSDFQRALSSSE”, “soluble”. To “MGSDKIHHHHHHMHILFLTHYFPPEVNAPASRTYENARRWVRDGHHVTVITCAPNHPKGVIYPGYRNRWCQQEDLDGIRVLRVKTYLSANKGFAKRIANYLSYMLSSTVFSCLVRDIDVVVSTSPQFFCGLAGYFVSRARSAPWVVEIRDLWPESIIAVGAIRNRTVIDLLEGLETFMYRRADHVVAVTDAFKRHIAGRGVGRDRISVIKNGADLERFTSGPRENSFRREHGLEGKFVVSYVGTHGMAHGLNTIFETAEAMRSCEDIVFLLVGDGAEREPLLARKAELGLTNVLMLPQQPKERMPEIINASDACMVLLKKTDLFKTVIPSKIFEAMAMERPIILGVEGESREIVEEGCCGLCIEPENAAELADAIRRLRDDGKLADELGQNGRRFVSAVFNREVLARRYLETLSSMVPLPASTIGVIGKELP” belongs “not soluble”. Consider “MGSDKIHHHHHHMNIQEKSKIEYRSRINRVMDYIDIHLDQPLELKSIAEIANFSPFHFHRIFTFLIGETPIDYIQRLRIEKAACRLRENMDISISEIADSCGFCTVSLFSRVFKKFFGLTPSQFRKTERPVYAQDGILFSKNGQMVSKNLTPKHVLSPQLCSVKFKISYFMETKIEVKEMPDMKAVYCRHMGAFKEIVKAYEKLIKWAEPRGLYIPNVTKSATVTHDDPSVTELSKVRQSACIIVEGDVKGEGEIGNLVIPGGQYAVGHFELGTEDFEKAWNTMCKWFTESGYQQGDGCTYELYHNSHRTHPENKHIVDICIPIKPL”, for which the “soluble on expression in E. coli” value is reported as “not soluble”. “MGHHHHHHSHLTVQFVPSQNAGTLEAKAKPLEKLLSKELGIPVKVSVSTNYNTIVEAMKSKKVDVGFLPPTAYTLAHDQKAADLLLQAQRFGVKEDGSASKELVDSYKSEILVKKDSKIKSLKDLKGKKIALQDVTSTAGYTFPLAMLKNEAGINATKDMKIVNVKGHDQAVISLLNGDVDAAAVFNDARNTVKKDQPNVFKDTRILKLTQAIPNDTISVRPDMDKDFQEKLKKAFIDIAKSKEGHKIISEVYSH”: the “soluble on expression in E. coli” value is “not soluble”. To “MSLQTWIWYPGDYEIWLGNRMNNRRTERGAFFPPFWKTDSHYVVVEFSKKLDLAEPEEIFIAAEGKYNVKLDGKLQFGMPSTLKLPAGKHSLNIKVWNQSTPPTIYVKGKTVNTDKTWKVTYEDKEWIDESGKASDTSATVYMDAGCWNFDGATQLPSKFSLARKPMKAVSSTPRKEGVLYDFGKETFGYITLKEVKGKGTIHIYYGESPEEALDTEYCETLDKLLAEPGQITDLAIRNTRKLYDEYTLDNSKAFRYVYVTCDPGVTIQDVSMQYEYLPEEYRGSFKCNDEELNRIWEVGAYTMHLTTREFFIDGIKRDRWVWSGDAIQSYLMNYYLFFDNETVKRTIWLLRGKDPVTSHSNTIMDYTFYWFLSIYDYYMYSGDKDFVTQLYPRMQSMMDYVLGRTNANGMVEGMTGDWVFVDWADGYLDKKGELSFEQVLFCKSLETMALCAGLAGNTADKTKYEKLASALRSKLEPAFWNEQKQAMVHNRVQGKQSESVTRYANMFSVFFNYLNADKQQTIKHSVLQNDSILKITTPYMRFYELEALCALGEQESVMKEMKAYWGGMLKEGATSFWEKYNPEETGTRHLAMYGRPYGKSLCHAWGASPIYLLGKYYLGVKPTKPGYEEYSVTPCLGGLKWMEGTVPTPYGNIHIYMDKKEIRIKSDGGKGVLNIPTRKGMKAMTIEPGEEQVFKYEGHHHHHH” belongs “soluble”; to “MGSDKIHHHHHHMDPRLLPLLSCPRHPTVTLTVEQVERVVNGAIVSGRLRCPVCATTYLIKDGILDMIGQHRPTSAAQVVNEVPVAAWAYERTWRPFALSLLSGEQFPLTRELKLITGLAGAERGGLMVDVGCSNGLYARALEHVRRQRGAGGFVVGIDLSMAMLQEAQRRARHEGLSISFIRASAQAMPFADGTVDALVMGGSLNEIGDIPAALSEWRRLLSPQGRGVMMSLVAASTPIGQGIQQLLASGGLQFPSLAELNHYFTAAGLRLRAQWQYGIVVFSVLQ”, “not soluble”. As for “MSLEENDFDAIYIGNSKSMIKDYRGFVFTMRELREKFPNAVLITDLEPFFYPLAVYLGIDAFDIRSLKIYSYEGLGFTQFSPIIWDEPKEDPVEYAKKIIRLIRIAIHEGKLRYLVENFLPTSMNAGILRIADRENIEYLEKYTPVDDKTVVFISDYSMTRPEVYRWAKRVRERFEPPKDIELLLILPCSAKKPYSRSRSHTLYRSAVKEALGEKMHRVHELIVTSPYGVVPREWEWIAKYDIVVTGHWSEREVRLAGELLADVLEKYPDIPIIAHVEGGYREAVKLAMELSGRDVIFTAKGNSTTSRESLANLTKTLKEFDVRDVDKEYRRYRFYENIRKIFDFYFGLNAGYAVLPERAQVVGSKMLRLIVDNQQTGTFQEGVISVTPWGMQRIYDELHSYWVEIDFDVRGDIFAAGVGSADEKIRPNDWVGVVRDGKVVAVGRAVLSGEEMVKAKRGVAVKVKKKAKEGHHHHHH”, the “soluble on expression in E. coli” value was “not soluble”.
